Assay results: patent US20240052042A1 (Novartis, published 2024)

Tests used:
[1] = biological target: T1, human NPR1 on CHO-K1 cells (human, UniProt P16066 33-1061); assay: cell-based or functional assay
T1 sequence: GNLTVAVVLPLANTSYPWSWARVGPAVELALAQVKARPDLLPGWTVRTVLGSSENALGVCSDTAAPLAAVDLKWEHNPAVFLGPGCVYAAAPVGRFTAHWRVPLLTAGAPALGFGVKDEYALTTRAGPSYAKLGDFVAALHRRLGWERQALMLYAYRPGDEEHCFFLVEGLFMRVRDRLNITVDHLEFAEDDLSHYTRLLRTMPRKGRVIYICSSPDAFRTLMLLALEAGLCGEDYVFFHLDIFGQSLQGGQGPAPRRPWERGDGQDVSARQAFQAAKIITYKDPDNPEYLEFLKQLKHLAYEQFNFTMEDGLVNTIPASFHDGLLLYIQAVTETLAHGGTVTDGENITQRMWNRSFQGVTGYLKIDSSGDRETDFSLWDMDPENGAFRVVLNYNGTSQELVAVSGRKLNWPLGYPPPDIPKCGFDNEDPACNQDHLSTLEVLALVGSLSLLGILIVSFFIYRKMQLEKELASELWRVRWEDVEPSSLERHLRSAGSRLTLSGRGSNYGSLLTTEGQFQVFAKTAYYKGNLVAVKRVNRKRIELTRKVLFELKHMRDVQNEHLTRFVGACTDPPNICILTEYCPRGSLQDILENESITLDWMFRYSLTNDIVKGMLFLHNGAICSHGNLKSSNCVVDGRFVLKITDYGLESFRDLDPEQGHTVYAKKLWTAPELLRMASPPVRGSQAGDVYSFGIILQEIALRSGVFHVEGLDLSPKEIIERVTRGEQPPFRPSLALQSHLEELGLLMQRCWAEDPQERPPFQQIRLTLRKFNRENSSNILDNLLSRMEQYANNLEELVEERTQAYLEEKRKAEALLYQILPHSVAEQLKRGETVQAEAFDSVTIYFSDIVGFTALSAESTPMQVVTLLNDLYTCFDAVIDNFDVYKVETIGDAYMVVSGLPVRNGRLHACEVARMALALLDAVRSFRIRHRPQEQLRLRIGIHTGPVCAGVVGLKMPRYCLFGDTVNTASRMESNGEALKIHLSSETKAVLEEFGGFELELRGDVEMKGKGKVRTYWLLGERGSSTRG

[2] = biological target: T2, human Natriuretic Peptide Receptor 1 (hNPR1) (human, UniProt P16066 33-473, limits assumed); assay: FabCys affinity (Octet per Table 18 comment)
T2 construct: pannings used NPR1-hFc; also called NPR1-hFc
T2 sequence: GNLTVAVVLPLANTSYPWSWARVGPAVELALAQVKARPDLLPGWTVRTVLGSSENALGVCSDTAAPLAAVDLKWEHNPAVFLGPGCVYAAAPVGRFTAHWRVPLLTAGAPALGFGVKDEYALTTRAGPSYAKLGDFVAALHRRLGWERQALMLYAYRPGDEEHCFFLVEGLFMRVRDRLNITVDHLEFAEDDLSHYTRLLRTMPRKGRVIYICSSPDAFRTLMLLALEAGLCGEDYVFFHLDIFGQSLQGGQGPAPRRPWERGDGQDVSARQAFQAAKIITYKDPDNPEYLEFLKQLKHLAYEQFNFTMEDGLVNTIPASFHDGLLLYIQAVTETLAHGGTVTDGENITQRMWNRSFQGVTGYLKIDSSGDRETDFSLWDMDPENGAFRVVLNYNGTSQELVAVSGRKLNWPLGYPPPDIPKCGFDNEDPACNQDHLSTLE

hNPR1-ANP complex [3] = biological target: T3, hNPR1-ANP complex (human, UniProt P01160 124-151, limits assumed); assay: FabCys affinity (Octet per Table 18 comment)
T3 construct: hNPR1 antigen in the presence of ANP; also called hNPR1 + 100 nM ANP
T3 sequence: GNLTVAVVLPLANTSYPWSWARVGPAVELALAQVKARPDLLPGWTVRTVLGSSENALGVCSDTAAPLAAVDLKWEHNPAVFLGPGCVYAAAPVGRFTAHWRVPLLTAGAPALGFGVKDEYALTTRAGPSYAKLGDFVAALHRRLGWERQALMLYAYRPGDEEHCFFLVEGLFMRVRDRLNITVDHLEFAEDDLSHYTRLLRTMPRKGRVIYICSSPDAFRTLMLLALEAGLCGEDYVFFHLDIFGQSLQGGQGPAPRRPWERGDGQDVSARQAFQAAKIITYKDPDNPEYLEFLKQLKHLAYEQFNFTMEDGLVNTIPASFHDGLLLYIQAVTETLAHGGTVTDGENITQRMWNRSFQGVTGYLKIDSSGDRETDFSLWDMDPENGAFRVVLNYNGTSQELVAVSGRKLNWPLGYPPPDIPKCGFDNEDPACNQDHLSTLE
T3 sequence (peptide): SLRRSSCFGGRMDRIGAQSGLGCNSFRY

rNPR1-ANP complex [4] = biological target: T4, rNPR1-ANP complex (rat, UniProt P01160 124-151 (human entry), limits assumed); assay: FabCys affinity (Octet per Table 18 comment)
T4 construct: rNPR1 antigen in the presence of ANP; also called rNPR1 + 100 nM ANP
T4 sequence: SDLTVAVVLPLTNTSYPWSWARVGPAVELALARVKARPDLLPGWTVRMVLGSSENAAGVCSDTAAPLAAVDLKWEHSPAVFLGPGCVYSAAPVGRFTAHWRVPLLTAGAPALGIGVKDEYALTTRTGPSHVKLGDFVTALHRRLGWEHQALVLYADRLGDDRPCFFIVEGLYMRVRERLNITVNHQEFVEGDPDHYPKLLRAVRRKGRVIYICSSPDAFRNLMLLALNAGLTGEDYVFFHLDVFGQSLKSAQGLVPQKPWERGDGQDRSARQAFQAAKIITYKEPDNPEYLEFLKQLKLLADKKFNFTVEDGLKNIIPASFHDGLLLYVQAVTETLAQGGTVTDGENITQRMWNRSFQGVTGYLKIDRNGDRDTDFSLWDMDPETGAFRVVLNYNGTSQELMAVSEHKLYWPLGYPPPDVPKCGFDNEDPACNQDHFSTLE
T4 sequence (peptide): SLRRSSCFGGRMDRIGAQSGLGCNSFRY

rat NPR1 (rNPR1) [5] = biological target: T5, rat NPR1 (rNPR1) (rat, UniProt P18910 29-469, limits assumed); assay: FabCys affinity (Octet per Table 18 comment)
T5 construct: Soluble antigen
T5 sequence: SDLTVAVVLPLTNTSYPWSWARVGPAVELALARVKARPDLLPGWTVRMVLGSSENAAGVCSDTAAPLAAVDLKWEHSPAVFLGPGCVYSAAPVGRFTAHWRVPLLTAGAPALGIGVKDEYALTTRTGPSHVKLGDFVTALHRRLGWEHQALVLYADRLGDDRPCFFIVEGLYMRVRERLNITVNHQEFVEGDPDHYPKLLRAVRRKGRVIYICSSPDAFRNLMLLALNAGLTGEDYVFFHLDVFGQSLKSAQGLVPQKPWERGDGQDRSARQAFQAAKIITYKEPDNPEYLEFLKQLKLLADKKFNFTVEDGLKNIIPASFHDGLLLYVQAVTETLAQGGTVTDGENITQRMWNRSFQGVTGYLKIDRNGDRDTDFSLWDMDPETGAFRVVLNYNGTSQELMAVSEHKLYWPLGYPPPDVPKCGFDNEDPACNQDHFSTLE

[6] = biological target: T2, human Natriuretic Peptide Receptor 1 …; assay: Octet, FabCys
hNPR1-ANP complex [7] = biological target: T3, hNPR1-ANP complex; assay: Octet, FabCys
rNPR1-ANP complex [8] = biological target: T4, rNPR1-ANP complex; assay: Octet, FabCys
rat NPR1 (rNPR1) [9] = biological target: T5, rat NPR1 (rNPR1); assay: Octet, FabCys
[10] = biological target: T2, human Natriuretic Peptide Receptor 1 …; assay: FabCys, parental value by Octet (table comment), as in Table 14
hNPR1-ANP complex [11] = biological target: T3, hNPR1-ANP complex; assay: as above
rNPR1-ANP complex [12] = biological target: T4, rNPR1-ANP complex; assay: as above
rat NPR1 (rNPR1) [13] = biological target: T5, rat NPR1 (rNPR1); assay: as above

cGMP conc [nM] at 1 µM FabCys, +0.075 nM ANP [1]: 75 nM
cGMP conc [nM] at 1 µM FabCys, without ANP [1]: 20 nM
Kd [2]: 0.5 nM
Kd (hNPR1-ANP complex [3]): 1 nM
Kd (rNPR1-ANP complex [4]): 1400 nM
Kd (rat NPR1 (rNPR1) [5]): 1600 nM
Kd [6]: 0.62 nM
Kd (hNPR1-ANP complex [7]): 0.8 nM
Kd (rNPR1-ANP complex [8]): 38 nM
Kd (rat NPR1 (rNPR1) [9]): 100 nM
Kd [10]: 0.5 nM
Kd (hNPR1-ANP complex [11]): 1 nM
Kd (rNPR1-ANP complex [12]): 1400 nM
Kd (rat NPR1 (rNPR1) [13]): 1600 nM
B1: YY06 (FabCys format) (Fab, V domains shown)
VH: EVQLLESGGGLVQPGGSLRLSCAASGFTFSSYAISWVRQAPGKGLEWVSAISGSGGSTYYAESVKGRFTISRDNSKNTLYLQMNSLRAEDTAVYYCARPYLGDRRSYGFDHWGQGTLVTVSS
VL: QSALTQPASVSGSPGQSITISCTGTSSDVGSYNLVSWYQQHPGKAPKLMIYEGSKRPSGVSNRFSGSKSGNTASLTISGLQAEDEADYYCSSYGFHIVVVVFGGGTKLTVL
notes: Monovalent FabCys
